Tested on: rabbit model of thromboembolic stroke
Assay: Rabbit model of thromboembolic stroke (clot embolization)
Type: in vivo
Details: 16-HETE 1 mg/kg per minute for 1 h from 1 h after embolization; tPA 6.3 mg/kg at 3-5 h; FIG. 3
Method: New Zealand rabbits of either sex, weighing 3-4 kilograms were used for the study. Prior to the start of the experiment, the rabbits were divided into three groups, those that were administered both 16-HETE at a rate of 1 mg/kg per minute for one hour and tPA (Genentech, Inc., San Francisco, Calif.) at a concentration of 6.3 mg/kg, tPA alone, or vehicle.
On the day of treatment the animals were fasted for 12 hours with free access to water and then anesthetized with an intramuscular solution of ketamine (50 mg/kg), acepromazine (20 mg) and xylazine (5 mg/kg). This solution was subsequently used to maintain a surgical depth of anesthesia as determined by responses to various physiologic and autonomic stimuli, including mean arterial pressure and response to paw pinch.
The animals were prepared for surgery by introducing femoral venous and arterial catheters (PE50 and 90, respectively; Clay Adams, Parsippany, N.J.). The catheters were placed for subsequent blood sampling, including blood gas and arterial pressure, drug infusions, and fluid replacement.
All animals were tracheotomized and mechanically ventilated in order to maintain arterial blood gases within a physiologic range. Arterial blood gas measurements (pH, pCO2, pO2) were determined, using a Corning 168 blood gas monitor. […]

B1: tPA: tissue plasminogen activator, thrombolytic agent (Genentech, Inc.) (protein, UniProt P00750 36-562, looked up)
Tissue-type plasminogen …: SYQVICRDEKTQMIYQQHQSWLRPVLRSNRVEYCWCNSGRAQCHSVPVKSCSEPRCFNGGTCQQALYFSDFVCQCPEGFAGKCCEIDTRATCYEDQGISYRGTWSTAESGAECTNWNSSALAQKPYSGRRPDAIRLGLGNHNYCRNPDRDSKPWCYVFKAGKYSSEFCSTPACSEGNSDCYFGNGSAYRGTHSLTESGASCLPWNSMILIGKVYTAQNPSAQALGLGKHNYCRNPDGDAKPWCHVLKNRRLTWEYCDVPSCSTCGLRQYSQPQFRIKGGLFADIASHPWQAAIFAKHRRSPGERFLCGGILISSCWILSAAHCFQERFPPHHLTVILGRTYRVVPGEEEQKFEVEKYIVHKEFDDDTYDNDIALLQLKSDSSRCAQESSVVRTVCLPPADLQLPDWTECELSGYGKHEALSPFYSERLKEAHVRLYPSSRCTSQHLLNRTVTDNMLCAGDTRSGGPQANLHDACQGDSGGPLVCLNDGRMTLVGIISWGLGCGQKDVPGVYTKVTNYLDWIRDNMRP
  brain infarct size: significantly larger

Reference: patent US6903135B2, “Methods and products related to 16-HETE analogs” (Board of Regents, The University of Texas System, priority 1998, dated 2005)
